Publication PMC9136124
pKd: −log10 of the molar value. One block for each substance: values may come before it.

Assays:
[1] = biological target: FakA_αβ bundle with helix (Staphylococcus aureus); assay: AUC; sedimentation velocity of single constructs, c(s) model in SEDFIT, 20 mM Tris, pH 7.5, 200 mM NaCl, 5 mM DTT, 20 °C, 50,000 rpm, Rayleigh interference optics
[2] = biological target: FakA, kinase component of fatty acid kinase (Staphylococcus aureus) (Staphylococcus aureus); assay: SEC-SAXS; Superdex 200 10/300, 20 mM Tris, pH 7.5, 200 mM NaCl, 1% glycerol; 300 μl FakA (4 mg/ml), FakA_NL (6.2 mg/ml) or FakA_LC (6 mg/ml) loaded
[3] = biological target: FakA C terminus, FakB substrate-binding domain (FakA_C) (Staphylococcus aureus); assay: AUC; FakB1 mixed with each isolated FakA domain; c(s) model by the text, 'sedimentation equilibrium' by the legend of Figure 4; 20 mM Tris, pH 7.5, 200 mM NaCl, 5 mM DTT, 20 °C; apparent KD from equilibrium concentrations of duplicate experiments, single site equilibrium model
[4] = biological target: FakA linker region, central domain (FakA_L) (Staphylococcus aureus); assay: AUC; sedimentation velocity of single constructs, c(s) model in SEDFIT, 20 mM Tris, pH 7.5, 200 mM NaCl, 5 mM DTT, 20 °C, 50,000 rpm, Rayleigh interference optics
[5] = biological target: FakA_LC (FakA_L and FakA_C domains connected) (Staphylococcus aureus); assay: SEC; analytical size exclusion chromatography on a S-75 13/300 column, 20 mM Tris, pH 7.5, 200 mM NaCl; oligomerization state estimated from a standard curve of protein standards
[6] = biological target: FakA_LC (FakA_L and FakA_C domains connected) (Staphylococcus aureus); assay: SEC-SAXS; Superdex 200 10/300, 20 mM Tris, pH 7.5, 200 mM NaCl, 1% glycerol; 300 μl FakA (4 mg/ml), FakA_NL (6.2 mg/ml) or FakA_LC (6 mg/ml) loaded
[7] = biological target: FakA_NL (FakA_N and FakA_L domains connected) (Staphylococcus aureus); assay: SEC; analytical size exclusion chromatography on a S-75 13/300 column, 20 mM Tris, pH 7.5, 200 mM NaCl; oligomerization state estimated from a standard curve of protein standards
[8] = biological target: FakA_NL (FakA_N and FakA_L domains connected) (Staphylococcus aureus); assay: SEC-SAXS; Superdex 200 10/300, 20 mM Tris, pH 7.5, 200 mM NaCl, 1% glycerol; 300 μl FakA (4 mg/ml), FakA_NL (6.2 mg/ml) or FakA_LC (6 mg/ml) loaded

stoichiometry N [1]: 2
Substance: FakA_αβ bundle with helix (domain or fragment)

stoichiometry N [2]: 2
Substance: FakA, kinase component of fatty acid kinase (Staphylococcus aureus) (enzyme)

pKd [3]: 4.80
stoichiometry N [3]: 1
Substance: FakB1, fatty acid binding protein component of fatty acid kinase (Staphylococcus aureus) (from UniProt X5EH37 1-288) (natural protein)

stoichiometry N [4]: 2
Substance: FakA linker region, central domain (FakA_L) (domain or fragment)

stoichiometry N [5]: 2
stoichiometry N [6]: 2
Substance: FakA_LC (FakA_L and FakA_C domains connected) (domain or fragment)

stoichiometry N [7]: 2
stoichiometry N [8]: 2
Substance: FakA_NL (FakA_N and FakA_L domains connected) (domain or fragment)
